Eight molecules from patent publication US20090111753A1, “Nogo-A Polypeptide Fragments, Variant Nogo Receptor-1 Polypeptides, and Uses Thereof” (Yale University, priority 2004, published 2009) can be followed below.

T1: AP-Nogo66 (Homo sapiens, UniProt Q9NQC3)
T1 construct: made in house; NgR mutants: COS-7
T1 sequence (Q9NQC3 1055-1120 limits assumed): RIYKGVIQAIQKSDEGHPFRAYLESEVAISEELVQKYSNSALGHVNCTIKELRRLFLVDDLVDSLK

T2: AP-B4C (Homo sapiens, UniProt Q9NQC3)
T2 construct: a.a; 950-1018 (AmNg B4C); made in house; host or cells: AP ligand: HEK293T conditioned medium; NgR mutants: COS-7
T2 sequence (Q9NQC3 950-1018): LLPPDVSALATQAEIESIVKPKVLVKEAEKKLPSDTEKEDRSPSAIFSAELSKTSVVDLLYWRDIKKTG

T3: AP-Lingo-1 (Homo sapiens, UniProt Q96FE5)
T3 construct: made in house; NgR mutants: COS-7
T3 sequence (Q96FE5 40-538 limits assumed): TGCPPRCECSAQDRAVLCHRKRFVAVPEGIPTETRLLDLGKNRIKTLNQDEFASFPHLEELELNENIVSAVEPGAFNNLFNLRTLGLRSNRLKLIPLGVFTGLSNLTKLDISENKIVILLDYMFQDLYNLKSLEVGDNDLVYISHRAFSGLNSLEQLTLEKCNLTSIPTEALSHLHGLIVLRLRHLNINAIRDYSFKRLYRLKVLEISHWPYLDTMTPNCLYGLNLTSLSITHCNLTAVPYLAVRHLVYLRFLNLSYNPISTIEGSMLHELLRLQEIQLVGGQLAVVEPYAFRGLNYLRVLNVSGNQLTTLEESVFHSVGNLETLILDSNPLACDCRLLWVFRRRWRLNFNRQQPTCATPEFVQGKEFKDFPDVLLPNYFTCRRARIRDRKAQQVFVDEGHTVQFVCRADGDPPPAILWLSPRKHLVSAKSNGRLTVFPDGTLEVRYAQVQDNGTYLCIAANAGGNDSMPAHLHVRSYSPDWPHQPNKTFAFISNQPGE

B1: 36, 38, 61: human NgR1 mutant, listed residues mutated to alanine (protein)
chain: CPGACVCYNAPAVTTSCPQQGLQAVPVGIPAASQAIFLHGNRISHVPAASFRACRNLTILWLHSNVLARIDAAAFTGLALLEQLDLSDNAQLRSVDPATFHGLGRLHTLHLDRCGLQELGPGLFRGLAALQYLYLQDNALQALPDDTFRDLGNLTHLFLHGNRISSVPERAFRGLHSLDRLLLHQNRVAHVHPHAFRDLGRLMTLYLFANNLSALPTEALAPLRALQYLRLNDNPWVCDCRARPLWAWLQKFRGSSSEVPCSLPQRLAGRDLKRLAANDLQGCAVATGPYHPIWTGRATDEEPLGLPKCCQPDAADKASVLEPGRPASAGNALKGRVPPGDSPPGNGSGPRHINDSPFGTLPGSAEPPLTAVRPEGSEPPGFPTSGPRRRPGCSRKNRTRSHCRLGQAGSGGGGTGDSEGSGALPSLTCSLTPLGLALVLWTVLGPC
B2: 114, 117, 139: human NgR1 mutant, listed residues mutated to alanine (protein)
chain: B1 chain with A10E, A12K, A35R, D88A, Q91A, R113A
B3: 256, 259, 284: human NgR1 mutant, listed residues mutated to alanine (protein)
chain: B1 chain with A10E, A12K, A35R, R230A, D233A, E258A
B4: 216, 218, 220: human NgR1 mutant, listed residues mutated to alanine (protein)
chain: B1 chain with A10E, A12K, A35R, H190A, H192A, H194A
B5: 117, 119, 120: human NgR1 mutant, listed residues mutated to alanine (protein)
chain: B1 chain with A10E, A12K, A35R, Q91A, R93A, S94A
B6: 95, 97, 122: human NgR1 mutant, listed residues mutated to alanine (protein)
chain: B1 chain with A10E, A12K, A35R, R69A, D71A, D96A
B7: 237, 256, 259: human NgR1 mutant, listed residues mutated to alanine (protein)
chain: B1 chain with A10E, A12K, A35R, N211A, R230A, D233A
B8: 220, 223, 224: human NgR1 mutant, listed residues mutated to alanine (protein)
chain: B1 chain with A10E, A12K, A35R, H194A, R197A, D198A

Changes are numbered by the printed parent chain.

In one test the test system is NgR ligands. In words: Binding of alanine substituted NgR mutants to NgR ligands, summary categories. Conditions: AP-Nogo66, AP-B4C, AP-B4C66, AP-Lingo-1, AP-OMgp and AP-MAG; compared to wild type NgR. In outline:
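AP-fused ligands (Nogo66, B4C, B4C66, Lingo-1, OMgp, MAG) were assayed against 74 Ala-substitution mutants of human NgR1 targeting surface charged patches, glycosylation sites and predicted binding regions, plus the D259N variant. Outcomes were grouped into categories: binding lost for all ligands, retained for all, or ligand-selective.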
Consider B1, for which the “ligand binding category of NgR mutant (Table II)” value (from here on “ligand binding category”) is reported as “Differential binding”.

Consider B2, for which the “ligand binding category” value is “Differential binding”.

In the case of B3, the “ligand binding category” value is given as “Differential binding”.

As to B4, the “ligand binding category” value is listed as “Differential binding”.

Consider B5, for which the “ligand binding category” value is given as “Differential binding”.

For the molecule B6, the “ligand binding category” value is “Differential binding”.

Take B7: the “ligand binding category” value is “Differential binding”.

In the case of B8, the “ligand binding category” value is “Differential binding”.

The target of a further test is T1, AP-Nogo66. The experiment in a line: Binding of AP-Nogo66 to COS-7 cells expressing NgR mutants. The arrangement: key: ++: WT level; +: weaker than wild type; trace binding; −: no binding. Conditions: AP-Ng66 5 nM; level of binding compared to wild type NgR. As to the method: (§1) FIG. 4A. […] Binding of AP or AP fused NgR ligands to COS-7 cells expressing different NgR mutants as indicated. The concentrations of ligands applied were: AP, 30 nM; AP-Ng66, 5 nM; AP-Ng33, 10 nM; AP-B4C, 10 nM; AP-B4C66, 0.5 nM; AP-Lingo-1, 10 nM; AP-OMGP, 10 nM; AP-MAG, 30 nM. These concentrations are close to the binding Kd of these proteins to NgR so that any […] is reflected linearly in staining.
(§2) FIG. 4B. AP binding of NgR ligands to NgR mutants expressed as percentage of wild type NgR. AP after incubation with AP fused ligands, AP bound to COS-7 cells expressing NgR or NgR mutants were stained and measured.
(§3) To better define how multiple ligands bind to the NgR protein, we examined a series of Ala-substituted NgR for ligand binding activity. NgR mutagenesis was done using the Quick Change Multisite Directed Mutagenesis Kit (Stratagene catalog #200514). Human NgR1 was used as a template. Ala substitutions were generated for each of the charged residues predicted to be solvent accessible at the surface of the ligand binding domain of NgR (Barton, W. A., et al., Embo J. 22:3291-3302 (2003); He, X. L., et al., Neuron 38:177-185 (2003)). We generated mutants in which 1-8 surface residues localized within 5 A of one another were Ala-substituted. Because of the coiling nature of the LRR structure, as residues juxtaposed on the protein surface are commonly separated by approximately 25 residues in the primary structure. In addition to mutations in specific charged surface patches, other mutations were targeted to glycosylation sites and to regions predicted to be involved in ligand binding based on the NgR structure (Barton, W. A., et al., Embo J. 22:3291-3302 (2003); He, X. L., et al., Neuron 38:177-185 (2003)). In addition, a variant corresponding to a human polymorphism was examined (D259N). None of the mutations altered the Leu residues that define the LRR structure itself or the Cys residues critical in the amino and carboxyl terminal capping domains. The vast majority of such Ala surface substitution mutants were expressed as immunoreactive polypeptides with a molecular weight and an expression level indistinguishable from wild type NgR (FIG. 4C and data not shown).
(§4) This collection of 74 individual NgR mutants was interrogated for AP-Nogo-66, AP-Amino-Nogo-B4C, AP-MAG, AP-OMgp, and AP-Lingo-1 binding. AP-Nogo66, AP-MAG, AP-OMGP and AP-Lingo-1 constructs are described elsewhere (Fournier, A. E., et al., Nature 409:341-346 (2001); Liu, B. P., et al., Science 297:1190-1193 (2002); Mi, S., et al., Nat. Neurosci. 7:221-228 (2004); Wang, K. C., et al., Nature 417:941-944 (2002b)). The properties of the NgR mutants fell into one of three major categories (Table II and FIG. 5). A number of Ala substituted NgR polypeptides bound all of the ligands at wild type levels. […] In addition, a significant extent of the concave surface is dispensable for ligand binding.
(§5) Binding of Alanine substituted NgR mutants to NgR ligands were compared to wild type NgR and the levels of binding were categorized as ++ (WT level), + (weaker than wild type), tr (trace binding), − (no binding), N/A (not determined). NgR mutant proteins were also subjected to SDS-PAGE and probed by anti-NgR antibodies. Mutants with expression level similar to WT NgR were labeled as “y”.
As for B1, the Ng66 entry is recorded as “+”.

For the molecule B2, the Ng66 result is recorded as “+”.

Regarding B3, the Ng66 entry was “+”.

In the case of B4, the Ng66 result is “++”.

For B5, the Ng66 entry is “++”.

In the case of B6, the Ng66 result is reported as “+”.

B7: the Ng66 entry is “tr”.

For the molecule B8, the Ng66 result was “+”.

The next test addresses T2, AP-B4C. In words: Binding of AP-B4C to COS-7 cells expressing NgR mutants. The arrangement: key: ++: WT level; +: weaker than wild type; trace binding; −: no binding. Conditions: AP-B4C 10 nM; level of binding compared to wild type NgR. The protocol: as §1, §2, §3, §4, §5
For the molecule B1, the B4C result is “++”.

For the molecule B2, the B4C entry is “+”.

Regarding B3, the B4C result was “+”.

For B4, the B4C result was “++”.

Take B5: the B4C entry is listed as “++”.

Consider B6, for which the B4C entry is listed as “+”.

With B7, the B4C entry is reported as “tr”.

In the case of B8, the B4C entry was “+”.

Another test has as its system AP-B4C66. The experiment in a line: Binding of AP-B4C66 to COS-7 cells expressing NgR mutants. The arrangement: key: ++: WT level; +: weaker than wild type; trace binding; −: no binding. To be noted: AP-B4C66 0.5 nM; level of binding compared to wild type NgR. The protocol: as §1, §2, §3, §4, §5
Consider B1, for which the B4C-66 entry is given as “++”.

In the case of B2, the B4C-66 result was “+”.

On to B3, for which the B4C-66 entry is “++”.

For B4, the B4C-66 result is recorded as “++”.

Consider B5, for which the B4C-66 result is given as “++”.

With B6, the B4C-66 entry was “+”.

Take B7: the B4C-66 result is “+”.

On to B8, for which the B4C-66 result is recorded as “+”.

Another test concerns the target T3, AP-Lingo-1. The experiment in a line: Binding of AP-Lingo-1 to COS-7 cells expressing NgR mutants. Conditions: AP-Lingo-1 10 nM; level of binding compared to wild type NgR. The arrangement: key: ++: WT level; +: weaker than wild type; trace binding; −: no binding. As to the method: as §1, §2, §3, §4, §5
For B1, the Lingo-1 entry is listed as “tr”.

Turning to B2, the Lingo-1 result is recorded as “−”.

With B3, the Lingo-1 entry was “++”.

Take B4: the Lingo-1 result was “+”.

Regarding B5, the Lingo-1 result was “tr”.

Consider B6, for which the Lingo-1 result is given as “−”.

For B7, the Lingo-1 result is “+”.

Regarding B8, the Lingo-1 entry is “−”.

A further test relates to AP-OMgp. The experiment in a line: Binding of AP-OMgp to COS-7 cells expressing NgR mutants. The arrangement: key: ++: WT level; +: weaker than wild type; trace binding; −: no binding. Conditions: AP-OMGP 10 nM; level of binding compared to wild type NgR. The protocol: as §1, §2, §3, §4, §5
Turning to B1, the OMgp entry is “+”.

For B2, the OMgp result is “−”.

With B3, the OMgp result was “+”.

Regarding B4, the OMgp result was “+”.

As to B5, the OMgp entry is on record as “tr”.

Turning to B6, the OMgp entry is listed as “tr”.

For B7, the OMgp entry is on record as “tr”.

Consider B8, for which the OMgp entry is listed as “−”.

The next test relates to AP-MAG. In words: Binding of AP-MAG to COS-7 cells expressing NgR mutants. Also noted: key: ++: WT level; +: weaker than wild type; trace binding; −: no binding. To be noted: AP-MAG 30 nM; level of binding compared to wild type NgR. As to the method:
as §1, §2, §3, §4, §5
With B1, the MAG entry is given as “tr”.

As to B2, the MAG result is reported as “−”.

B3: the MAG result was “−”.

Regarding B4, the MAG entry is “tr”.

Turning to B5, the MAG entry is listed as “−”.

Consider B6, for which the MAG entry is recorded as “tr”.

As for B7, the MAG entry was “−”.

On to B8, for which the MAG result was “tr”.
